Data from the supplement of paper PMC9112550, “Optimization of the antimicrobial peptide Bac7 by deep mutational scanning” (BMC Biology, 2022).

Test system: Escherichia coli TOP10
Assay: shrunken log2 fold change of peptide-encoding DNA abundance (4.5 h post-induction vs induction); higher = less antimicrobial activity (less host growth inhibition)
Conditions: time post-induction: 4.5 h; library: site-saturation at positions 5, 18, 19, 20
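Further: peptides expressed intracellularly from a pBAD plasmid library in pooled LB shake-flask culture, induced with 0.3% L-arabinose, DNA abundance read by NGS, three biological replicates, DESeq2 with apeglm shrinkage.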

Sequence	shrunken log2 fold change
RRIRPRPPRLPRPRPRPGRTPRP	0.153
RRIRIRPPRLPRPRPRPATCPRP	-0.349
RRIRRRPPRLPRPRPRPKMYPRP	-0.258
RRIRCRPPRLPRPRPRPLVWPRP	0.207
RRIRIRPPRLPRPRPRPSIQPRP	-0.252
RRIRRRPPRLPRPRPRPMWWPRP	0.291
RRIRIRPPRLPRPRPRPRGLPRP	-0.272
RRIRRRPPRLPRPRPRPNRLPRP	0.523
RRIRVRPPRLPRPRPRPITGPRP	-0.00538
RRIRQRPPRLPRPRPRPWDVPRP	-0.0187
RRIRVRPPRLPRPRPRPNRYPRP	-0.4
RRIRHRPPRLPRPRPRPTHKPRP	0.0457
RRIRERPPRLPRPRPRPKRRPRP	0.143
RRIRTRPPRLPRPRPRPVWGPRP	0.368
RRIRGRPPRLPRPRPRPQKSPRP	0.316
RRIRDRPPRLPRPRPRPKTYPRP	-0.227
RRIRVRPPRLPRPRPRPNQVPRP	-0.185
RRIRTRPPRLPRPRPRPKYRPRP	-0.135
RRIRPRPPRLPRPRPRPQRKPRP	0.113
RRIRLRPPRLPRPRPRPRKHPRP	-0.0984
RRIRARPPRLPRPRPRPQGAPRP	0.191
RRIRQRPPRLPRPRPRPHMQPRP	-0.288
RRIRERPPRLPRPRPRPMAYPRP	-0.0427

Sequence	shrunken log2 fold change
RRIRYRPPRLPRPRPRPPFDPRP	-0.565
RRIRKRPPRLPRPRPRPDGDPRP	3.21
RRIRARPPRLPRPRPRPGLIPRP	0.0698
RRIRQRPPRLPRPRPRPKNWPRP	0.139
RRIRARPPRLPRPRPRPEIYPRP	-0.0195
RRIRDRPPRLPRPRPRPHCPPRP	-0.191
RRIRQRPPRLPRPRPRPACKPRP	-0.0465
RRIRSRPPRLPRPRPRPHHGPRP	-0.0421
RRIRDRPPRLPRPRPRPPDAPRP	0.65
RRIRKRPPRLPRPRPRPGTRPRP	0.165
RRIRCRPPRLPRPRPRPWTNPRP	-0.0849
RRIRQRPPRLPRPRPRPENVPRP	-0.0767
RRIRQRPPRLPRPRPRPGTHPRP	-0.00939
RRIRMRPPRLPRPRPRPSTWPRP	0.081
RRIRTRPPRLPRPRPRPAESPRP	0.0351
RRIRNRPPRLPRPRPRPMAKPRP	0.0197
RRIRLRPPRLPRPRPRPQRVPRP	0.0215
RRIRMRPPRLPRPRPRPFNTPRP	-0.0396
RRIRLRPPRLPRPRPRPWNKPRP	-0.436
RRIRKRPPRLPRPRPRPFCSPRP	-0.00787
RRIRPRPPRLPRPRPRPGVHPRP	-0.0724
RRIRKRPPRLPRPRPRPMHPPRP	0.19
RRIRWRPPRLPRPRPRPSDWPRP	0.12

Sequence	shrunken log2 fold change
RRIRMRPPRLPRPRPRPQICPRP	0.058
RRIRIRPPRLPRPRPRPVNAPRP	-0.113
RRIRDRPPRLPRPRPRPIQAPRP	0.119
RRIRYRPPRLPRPRPRPEMSPRP	-0.343
RRIRFRPPRLPRPRPRPRKIPRP	0.0429
RRIRCRPPRLPRPRPRPFVDPRP	-0.307
RRIRCRPPRLPRPRPRPLRRPRP	0.519
RRIRERPPRLPRPRPRPCFPPRP	-0.166
RRIRMRPPRLPRPRPRPTLKPRP	0.501
RRIRMRPPRLPRPRPRPNHLPRP	-0.0575
RRIRSRPPRLPRPRPRPKTKPRP	0.000308
RRIRVRPPRLPRPRPRPCDQPRP	-0.0149
RRIRCRPPRLPRPRPRPCMKPRP	-0.368
RRIRIRPPRLPRPRPRPFYHPRP	-0.594
RRIRIRPPRLPRPRPRPKQMPRP	-0.166
RRIRERPPRLPRPRPRPNTEPRP	0.0956
RRIRERPPRLPRPRPRPKKAPRP	-0.0599
RRIRARPPRLPRPRPRPRDPPRP	0.948
RRIRRRPPRLPRPRPRPIDPPRP	-0.0222
RRIRWRPPRLPRPRPRPCKDPRP	-0.381
RRIRKRPPRLPRPRPRPPPHPRP	0.781
RRIRLRPPRLPRPRPRPDMFPRP	-0.218
RRIRERPPRLPRPRPRPVVSPRP	-0.0681

Sequence	shrunken log2 fold change
RRIRQRPPRLPRPRPRPFCHPRP	0.00489
RRIRKRPPRLPRPRPRPGLRPRP	0.708
RRIRRRPPRLPRPRPRPPNPPRP	0.691
RRIRDRPPRLPRPRPRPEYDPRP	0.00968
RRIRERPPRLPRPRPRPFKNPRP	-0.174
RRIRPRPPRLPRPRPRPYLVPRP	-0.203
RRIRQRPPRLPRPRPRPYLLPRP	-0.0483
RRIRQRPPRLPRPRPRPNEPPRP	-0.0605
RRIRMRPPRLPRPRPRPCDQPRP	-0.134
RRIRSRPPRLPRPRPRPQGWPRP	0.469
RRIRERPPRLPRPRPRPNHHPRP	-0.845
RRIRHRPPRLPRPRPRPYEMPRP	-0.383
RRIRWRPPRLPRPRPRPSNLPRP	-0.0676
RRIRTRPPRLPRPRPRPQHVPRP	-0.0575
RRIRNRPPRLPRPRPRPWAYPRP	-0.0322
RRIRQRPPRLPRPRPRPILHPRP	-1.25
RRIRARPPRLPRPRPRPISIPRP	-0.439
RRIRYRPPRLPRPRPRPENDPRP	-0.342
RRIRRRPPRLPRPRPRPFGMPRP	-0.0784
RRIRSRPPRLPRPRPRPSFDPRP	-0.264
RRIRIRPPRLPRPRPRPMFYPRP	-1.25
RRIRIRPPRLPRPRPRPCCQPRP	-0.0291
